From the supplement of paper PMC9112550, “Optimization of the antimicrobial peptide Bac7 by deep mutational scanning” (BMC Biology, 2022)

Test system: Escherichia coli TOP10
Test: shrunken log2 fold change of peptide-encoding DNA abundance (4.5 h post-induction vs induction); higher = less antimicrobial activity (less host growth inhibition)
Details: time post-induction: 4.5 h; library: site-saturation at positions 5, 18, 19, 20
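Further: peptides expressed intracellularly from a pBAD plasmid library in pooled LB shake-flask culture, induced with 0.3% L-arabinose, DNA abundance read by NGS, three biological replicates, DESeq2 with apeglm shrinkage.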

Sequence	shrunken log2 fold change
RRIRFRPPRLPRPRPRPEVHPRP	-0.309
RRIRWRPPRLPRPRPRPHCPPRP	-0.0401
RRIRPRPPRLPRPRPRPNQPPRP	0.0225
RRIRKRPPRLPRPRPRPTGVPRP	0.00874
RRIRQRPPRLPRPRPRPDNKPRP	-0.532
RRIRSRPPRLPRPRPRPVALPRP	-0.0772
RRIRGRPPRLPRPRPRPQPHPRP	0.582
RRIRIRPPRLPRPRPRPTWNPRP	0.409
RRIRLRPPRLPRPRPRPIHNPRP	-1.05
RRIRERPPRLPRPRPRPQMDPRP	0.178
RRIRERPPRLPRPRPRPSIAPRP	-0.259
RRIRIRPPRLPRPRPRPDYWPRP	-0.195
RRIRYRPPRLPRPRPRPYLAPRP	-0.682
RRIRIRPPRLPRPRPRPYLRPRP	-0.086
RRIRGRPPRLPRPRPRPTDIPRP	0.114
RRIRLRPPRLPRPRPRPHKMPRP	-0.355
RRIRPRPPRLPRPRPRPTPWPRP	0.427
RRIRTRPPRLPRPRPRPWISPRP	-0.0102
RRIRCRPPRLPRPRPRPRLPPRP	0.382
RRIRSRPPRLPRPRPRPRMTPRP	0.251
RRIRQRPPRLPRPRPRPNSGPRP	-0.0316
RRIRNRPPRLPRPRPRPLINPRP	-0.533
RRIRIRPPRLPRPRPRPIMWPRP	-0.0162
RRIRIRPPRLPRPRPRPSMIPRP	-0.458
RRIRVRPPRLPRPRPRPDTQPRP	0.0912

Sequence	shrunken log2 fold change
RRIRQRPPRLPRPRPRPTVCPRP	0.0669
RRIRYRPPRLPRPRPRPGFYPRP	-0.406
RRIRKRPPRLPRPRPRPYHNPRP	-0.227
RRIRRRPPRLPRPRPRPAKIPRP	0.117
RRIRPRPPRLPRPRPRPMQCPRP	0.00596
RRIRYRPPRLPRPRPRPNRHPRP	-0.614
RRIRSRPPRLPRPRPRPKVLPRP	0.248
RRIRIRPPRLPRPRPRPIDWPRP	-0.0878
RRIRDRPPRLPRPRPRPAISPRP	-0.0409
RRIRQRPPRLPRPRPRPYCHPRP	-0.0183
RRIRQRPPRLPRPRPRPRRVPRP	0.252
RRIRLRPPRLPRPRPRPEIRPRP	-0.0685
RRIRMRPPRLPRPRPRPWCWPRP	0.366
RRIRMRPPRLPRPRPRPQYCPRP	-0.0737
RRIRRRPPRLPRPRPRPAYKPRP	0.0139
RRIRMRPPRLPRPRPRPQQPPRP	0.0363
RRIRKRPPRLPRPRPRPYVGPRP	-0.0717
RRIRRRPPRLPRPRPRPHKVPRP	0.0772
RRIRRRPPRLPRPRPRPYRRPRP	0.0385
RRIRIRPPRLPRPRPRPIVMPRP	-0.0726
RRIRERPPRLPRPRPRPFAQPRP	-0.145
RRIRGRPPRLPRPRPRPQSAPRP	0.629
RRIRNRPPRLPRPRPRPGFGPRP	0.25
RRIRNRPPRLPRPRPRPHPSPRP	-0.25
RRIRMRPPRLPRPRPRPGMHPRP	0.186

Sequence	shrunken log2 fold change
RRIRNRPPRLPRPRPRPYNIPRP	-0.13
RRIRCRPPRLPRPRPRPVLNPRP	-0.396
RRIRMRPPRLPRPRPRPPYMPRP	-0.135
RRIRLRPPRLPRPRPRPIWGPRP	0.112
RRIRLRPPRLPRPRPRPLQNPRP	0.166
RRIRPRPPRLPRPRPRPMKNPRP	0.212
RRIRDRPPRLPRPRPRPTKKPRP	-0.0587
RRIRARPPRLPRPRPRPWIWPRP	0.111
RRIRWRPPRLPRPRPRPPNYPRP	-0.0821
RRIRDRPPRLPRPRPRPDGEPRP	-0.0121
RRIRARPPRLPRPRPRPMCLPRP	0.0284
RRIRQRPPRLPRPRPRPTTEPRP	0.26
RRIRERPPRLPRPRPRPFTRPRP	-0.0106
RRIRSRPPRLPRPRPRPSNKPRP	-0.413
RRIRWRPPRLPRPRPRPDAMPRP	0.393
RRIRIRPPRLPRPRPRPAMRPRP	1.37
RRIRARPPRLPRPRPRPETLPRP	1.15
RRIRWRPPRLPRPRPRPFMSPRP	-0.0321
RRIRVRPPRLPRPRPRPEPAPRP	0.44
RRIRYRPPRLPRPRPRPKAKPRP	0.0915
RRIRFRPPRLPRPRPRPVREPRP	0.269
RRIRYRPPRLPRPRPRPQTGPRP	-0.288
RRIRLRPPRLPRPRPRPFLLPRP	-0.47
RRIRFRPPRLPRPRPRPDGEPRP	0.0232
RRIRRRPPRLPRPRPRPGVKPRP	0.187

Sequence	shrunken log2 fold change
RRIRNRPPRLPRPRPRPNYTPRP	-0.359
RRIRARPPRLPRPRPRPKFDPRP	0.376
RRIRTRPPRLPRPRPRPTSIPRP	-0.195
RRIRGRPPRLPRPRPRPYFEPRP	-0.123
RRIRYRPPRLPRPRPRPAAIPRP	-0.092
RRIRTRPPRLPRPRPRPCHCPRP	-1.43
RRIRKRPPRLPRPRPRPWHEPRP	-0.0363
RRIRIRPPRLPRPRPRPNSQPRP	-0.523
RRIRWRPPRLPRPRPRPNHLPRP	-0.281
RRIRVRPPRLPRPRPRPSSDPRP	-0.131
RRIRNRPPRLPRPRPRPPPRPRP	1.47
RRIRARPPRLPRPRPRPECRPRP	0.874
RRIRPRPPRLPRPRPRPCLKPRP	-0.0625
RRIRQRPPRLPRPRPRPFQCPRP	-0.247
RRIRPRPPRLPRPRPRPSLKPRP	-0.25
RRIRYRPPRLPRPRPRPQTRPRP	-0.322
RRIRERPPRLPRPRPRPYLIPRP	-0.626
RRIRRRPPRLPRPRPRPLHCPRP	0.0886
RRIRHRPPRLPRPRPRPSKKPRP	0.0943
RRIRMRPPRLPRPRPRPMMWPRP	0.274
RRIRCRPPRLPRPRPRPAWEPRP	0.0219
RRIRDRPPRLPRPRPRPYKFPRP	-0.223
RRIRRRPPRLPRPRPRPDRTPRP	0.222
RRIRWRPPRLPRPRPRPLDKPRP	0.352
RRIRWRPPRLPRPRPRPMQGPRP	0.00185

Sequence	shrunken log2 fold change
RRIRLRPPRLPRPRPRPIRSPRP	-0.0199
RRIRWRPPRLPRPRPRPGSIPRP	-0.0682
RRIRYRPPRLPRPRPRPNDDPRP	-0.0641
RRIRSRPPRLPRPRPRPHMGPRP	-0.0366
RRIRYRPPRLPRPRPRPRPDPRP	-0.0672
RRIRYRPPRLPRPRPRPGIVPRP	-0.384
RRIRSRPPRLPRPRPRPDQDPRP	0.142
RRIRLRPPRLPRPRPRPKPLPRP	0.144
RRIRMRPPRLPRPRPRPIYYPRP	-0.51
RRIRIRPPRLPRPRPRPMCLPRP	-0.425
RRIRRRPPRLPRPRPRPEQFPRP	0.212
RRIRPRPPRLPRPRPRPKHNPRP	-0.303
RRIRCRPPRLPRPRPRPNCSPRP	0.0117
RRIRYRPPRLPRPRPRPPEAPRP	0.0456
RRIRNRPPRLPRPRPRPLKHPRP	-0.239
RRIRGRPPRLPRPRPRPAPNPRP	0.829
RRIRTRPPRLPRPRPRPNENPRP	1.59
RRIRCRPPRLPRPRPRPEWQPRP	-0.0271
RRIRKRPPRLPRPRPRPMASPRP	0.55
RRIRKRPPRLPRPRPRPPTFPRP	0.149
RRIRYRPPRLPRPRPRPILMPRP	-0.0114
RRIRPRPPRLPRPRPRPSNHPRP	-0.497
RRIRQRPPRLPRPRPRPRYAPRP	0.0355
RRIRTRPPRLPRPRPRPKSKPRP	0.0217
RRIRYRPPRLPRPRPRPPWMPRP	-0.0946

Sequence	shrunken log2 fold change
RRIRTRPPRLPRPRPRPQTVPRP	-0.216
RRIRNRPPRLPRPRPRPCPMPRP	0.151
RRIRQRPPRLPRPRPRPQSLPRP	-0.0818
RRIRPRPPRLPRPRPRPHRVPRP	0.164
RRIRCRPPRLPRPRPRPHMAPRP	-0.374
RRIRYRPPRLPRPRPRPEVGPRP	0.0159
RRIRMRPPRLPRPRPRPDQKPRP	-0.0396
RRIRHRPPRLPRPRPRPHMWPRP	0.104
RRIRDRPPRLPRPRPRPQRNPRP	-0.0378
RRIRVRPPRLPRPRPRPRFYPRP	0.112
RRIRVRPPRLPRPRPRPFQIPRP	-0.603
RRIRWRPPRLPRPRPRPRVSPRP	0.158
RRIRHRPPRLPRPRPRPVPDPRP	-0.526
RRIRDRPPRLPRPRPRPECWPRP	1.84
RRIRIRPPRLPRPRPRPQVFPRP	-0.0107
RRIRPRPPRLPRPRPRPHLGPRP	0.088
RRIRQRPPRLPRPRPRPECHPRP	0.268
RRIRERPPRLPRPRPRPKVHPRP	-0.196
RRIRKRPPRLPRPRPRPFWEPRP	0.341
RRIRPRPPRLPRPRPRPVPQPRP	0.446
RRIRMRPPRLPRPRPRPMVIPRP	-0.0665
RRIRWRPPRLPRPRPRPPGWPRP	0.527
RRIRTRPPRLPRPRPRPNDDPRP	-0.519
RRIRWRPPRLPRPRPRPKSKPRP	0.194
RRIRCRPPRLPRPRPRPEMGPRP	0.0517
